Where “and” joins values, the source holds several entries; their conditions need not be identical. Equal entries are not always repeated.
Tests used:
FHCS-1 (RSV strain A2) [1] = biological target: FHCS-1 (RSV strain A2) (UniProt P03420); assay: ELISA; F coated 2500 ng/ml; stored -80° C.
FHCS-2 (RSV strain A2) [2] = biological target: FHCS-2 (RSV strain A2) (UniProt P03420); assay: ELISA; F coated 2500 ng/ml; stored -80° C.
FHCS-4 (RSV strain A2) [3] = biological target: FHCS-4 (RSV strain A2) (UniProt P03420); assay: ELISA; F coated 2500 ng/ml; stored -80° C.
FHCS-1 (RSV strain A2) [4] = biological target: FHCS-1 (RSV strain A2) (UniProt P03420); assay: ELISA; F coated 312.5 ng/ml; stored -80° C.
FHCS-2 (RSV strain A2) [5] = biological target: FHCS-2 (RSV strain A2) (UniProt P03420); assay: ELISA; F coated 5000 ng/ml; stored 37° C. 4 W
FHCS-1 (RSV strain A2) [6] = biological target: FHCS-1 (RSV strain A2) (UniProt P03420); assay: ELISA; F coated 10000 ng/ml; stored -80° C.
FHCS-2 (RSV strain A2) [7] = biological target: FHCS-2 (RSV strain A2) (UniProt P03420); assay: ELISA; F coated 10000 ng/ml; stored -80° C.
FHCS-4 (RSV strain A2) [8] = biological target: FHCS-4 (RSV strain A2) (UniProt P03420); assay: ELISA; F coated 10000 ng/ml; stored -80° C.
FHCS-1 (RSV strain A2) [9] = biological target: FHCS-1 (RSV strain A2) (UniProt P03420); assay: ELISA; F coated 625 ng/ml; stored -80° C.
FHCS-2 (RSV strain A2) [10] = biological target: FHCS-2 (RSV strain A2) (UniProt P03420); assay: ELISA; F coated 625 ng/ml; stored -80° C.
FHCS-4 (RSV strain A2) [11] = biological target: FHCS-4 (RSV strain A2) (UniProt P03420); assay: ELISA; F coated 625 ng/ml; stored -80° C.
[12] = biological target: wild-type RSV F protein 2 before artificial mutation (RSV strain A2) (UniProt P03420); assay: sandwich ELISA, AM14 coated, F at 2 µg/ml
FHCS-1 (RSV strain A2) [13] = biological target: FHCS-1 (RSV strain A2) (UniProt P03420); assay: ELISA; F coated 78.13 ng/ml; stored 37° C. 4 W
FHCS-2 (RSV strain A2) [14] = biological target: FHCS-2 (RSV strain A2) (UniProt P03420); assay: ELISA; F coated 78.13 ng/ml; stored 37° C. 4 W
FHCS-4 (RSV strain A2) [15] = biological target: FHCS-4 (RSV strain A2) (UniProt P03420); assay: ELISA; F coated 78.13 ng/ml; stored 37° C. 4 W
FHCS-1 (RSV strain A2) [16] = biological target: FHCS-1 (RSV strain A2) (UniProt P03420); assay: ELISA; F coated 156.3 ng/ml; stored 37° C. 4 W
FHCS-2 (RSV strain A2) [17] = biological target: FHCS-2 (RSV strain A2) (UniProt P03420); assay: ELISA; F coated 156.3 ng/ml; stored 37° C. 4 W
FHCS-4 (RSV strain A2) [18] = biological target: FHCS-4 (RSV strain A2) (UniProt P03420); assay: ELISA; F coated 156.3 ng/ml; stored 37° C. 4 W
FHCS-1 (RSV strain A2) [19] = biological target: FHCS-1 (RSV strain A2) (UniProt P03420); assay: ELISA; F coated 312.5 ng/ml; stored -80° C.; remark: listed apart in the source
FHCS-2 (RSV strain A2) [20] = biological target: FHCS-2 (RSV strain A2) (UniProt P03420); assay: ELISA; F coated 312.5 ng/ml; stored -80° C.
FHCS-4 (RSV strain A2) [21] = biological target: FHCS-4 (RSV strain A2) (UniProt P03420); assay: ELISA; F coated 312.5 ng/ml; stored -80° C.
FHCS-1 (RSV strain A2) [22] = biological target: FHCS-1 (RSV strain A2) (UniProt P03420); assay: ELISA; F coated 2500 ng/ml; stored 37° C. 2 W
FHCS-2 (RSV strain A2) [23] = biological target: FHCS-2 (RSV strain A2) (UniProt P03420); assay: ELISA; F coated 2500 ng/ml; stored 37° C. 2 W
FHCS-4 (RSV strain A2) [24] = biological target: FHCS-4 (RSV strain A2) (UniProt P03420); assay: ELISA; F coated 2500 ng/ml; stored 37° C. 2 W
FHCS-1 (RSV strain A2) [25] = biological target: FHCS-1 (RSV strain A2) (UniProt P03420); assay: ELISA; F coated 1250 ng/ml; stored -80° C.
FHCS-2 (RSV strain A2) [26] = biological target: FHCS-2 (RSV strain A2) (UniProt P03420); assay: ELISA; F coated 1250 ng/ml; stored -80° C.
FHCS-4 (RSV strain A2) [27] = biological target: FHCS-4 (RSV strain A2) (UniProt P03420); assay: ELISA; F coated 1250 ng/ml; stored -80° C.
FHCS-2 (RSV strain A2) [28] = biological target: FHCS-2 (RSV strain A2) (UniProt P03420); assay: ELISA; F coated 78.13 ng/ml; stored -80° C.
FHCS-4 (RSV strain A2) [29] = biological target: FHCS-4 (RSV strain A2) (UniProt P03420); assay: ELISA; F coated 78.13 ng/ml; stored -80° C.
FHCS-1 (RSV strain A2) [30] = biological target: FHCS-1 (RSV strain A2) (UniProt P03420); assay: ELISA; F coated 78.13 ng/ml; stored 37° C. 2 W
FHCS-4 (RSV strain A2) [31] = biological target: FHCS-4 (RSV strain A2) (UniProt P03420); assay: ELISA; F coated 78.13 ng/ml; stored 37° C. 2 W
FHCS-1 (RSV strain A2) [32] = biological target: FHCS-1 (RSV strain A2) (UniProt P03420); assay: ELISA; F coated 312.5 ng/ml; stored 37° C. 2 W
FHCS-2 (RSV strain A2) [33] = biological target: FHCS-2 (RSV strain A2) (UniProt P03420); assay: ELISA; F coated 312.5 ng/ml; stored 37° C. 2 W
FHCS-4 (RSV strain A2) [34] = biological target: FHCS-4 (RSV strain A2) (UniProt P03420); assay: ELISA; F coated 312.5 ng/ml; stored 37° C. 2 W
FHCS-1 (RSV strain A2) [35] = biological target: FHCS-1 (RSV strain A2) (UniProt P03420); assay: ELISA; F coated 1250 ng/ml; stored 37° C. 2 W
FHCS-2 (RSV strain A2) [36] = biological target: FHCS-2 (RSV strain A2) (UniProt P03420); assay: ELISA; F coated 1250 ng/ml; stored 37° C. 2 W
FHCS-4 (RSV strain A2) [37] = biological target: FHCS-4 (RSV strain A2) (UniProt P03420); assay: ELISA; F coated 1250 ng/ml; stored 37° C. 2 W

AM14 monoclonal antibody
OD value (FHCS-1 (RSV strain A2) [1]): 0.034 OD and 0.039 OD
OD value (FHCS-2 (RSV strain A2) [2]): 0.051 OD and 0.056 OD
OD value (FHCS-4 (RSV strain A2) [3]): 0.008 OD and 0.007 OD
OD value (FHCS-1 (RSV strain A2) [4]): 0.004 OD and 0.008 OD
OD value (FHCS-2 (RSV strain A2) [5]): 1.95 OD and 1.48 OD
OD value (FHCS-1 (RSV strain A2) [6]): 1.77 OD and 2.07 OD
OD value (FHCS-2 (RSV strain A2) [7]): 2.01 OD and 2.11 OD
OD value (FHCS-4 (RSV strain A2) [8]): 0.825 OD and 0.743 OD
OD value (FHCS-1 (RSV strain A2) [9]): 0.004 OD and 0.007 OD
OD value (FHCS-2 (RSV strain A2) [10]): 0.008 OD
OD value (FHCS-4 (RSV strain A2) [11]): 0.005 OD and 0.006 OD
OD value [12]: 0.01 OD

Synagis® (antibody)
OD value (FHCS-1 (RSV strain A2) [13]): 0.025 OD and 0.032 OD
OD value (FHCS-2 (RSV strain A2) [14]): 0.03 OD and 0.028 OD
OD value (FHCS-4 (RSV strain A2) [15]): 0.019 OD and 0.025 OD
OD value (FHCS-1 (RSV strain A2) [16]): 0.055 OD and 0.062 OD
OD value (FHCS-2 (RSV strain A2) [17]): 0.069 OD and 0.058 OD
OD value (FHCS-4 (RSV strain A2) [18]): 0.05 OD and 0.048 OD
OD value (FHCS-1 (RSV strain A2) [19]): 0.065 OD and 0.053 OD
OD value (FHCS-2 (RSV strain A2) [20]): 0.109 OD and 0.097 OD
OD value (FHCS-4 (RSV strain A2) [21]): 0.032 OD and 0.028 OD
OD value (FHCS-1 (RSV strain A2) [22]): 1.88 OD and 1.43 OD
OD value (FHCS-2 (RSV strain A2) [23]): 1.6 OD and 1.85 OD
OD value (FHCS-4 (RSV strain A2) [24]): 1.46 OD and 1.58 OD
OD value (FHCS-1 (RSV strain A2) [25]): 0.635 OD and 0.642 OD
OD value (FHCS-2 (RSV strain A2) [26]): 0.928 OD
OD value (FHCS-4 (RSV strain A2) [27]): 0.321 OD and 0.328 OD
OD value (FHCS-2 (RSV strain A2) [28]): 0.016 OD
OD value (FHCS-4 (RSV strain A2) [29]): 0.008 OD
OD value (FHCS-1 (RSV strain A2) [30]): 0.01 OD and 0.015 OD
OD value (FHCS-4 (RSV strain A2) [31]): 0.018 OD and 0.015 OD
OD value (FHCS-1 (RSV strain A2) [32]): 0.051 OD and 0.05 OD
OD value (FHCS-2 (RSV strain A2) [33]): 0.084 OD and 0.095 OD
OD value (FHCS-4 (RSV strain A2) [34]): 0.074 OD and 0.071 OD
OD value (FHCS-1 (RSV strain A2) [35]): 0.478 OD and 0.493 OD
OD value (FHCS-2 (RSV strain A2) [36]): 0.78 OD and 0.704 OD
OD value (FHCS-4 (RSV strain A2) [37]): 0.535 OD and 0.54 OD

From patent US20260117202A1
